# Values of other authors as cited in article PMC12208613.
# Values joined by “and” are separate entries in the source; they are usually repeats but may differ in a detail not shown here. Equal values may be shown once.
# Molecular target: CD7 (Homo sapiens) (UniProt P09564)
# Sequence (P09564 26-180): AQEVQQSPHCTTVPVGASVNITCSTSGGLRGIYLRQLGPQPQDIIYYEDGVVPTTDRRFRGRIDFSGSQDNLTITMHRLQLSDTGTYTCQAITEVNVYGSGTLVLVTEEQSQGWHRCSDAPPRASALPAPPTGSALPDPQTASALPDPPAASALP
# K12, sequence (Q8WVN6 29-145): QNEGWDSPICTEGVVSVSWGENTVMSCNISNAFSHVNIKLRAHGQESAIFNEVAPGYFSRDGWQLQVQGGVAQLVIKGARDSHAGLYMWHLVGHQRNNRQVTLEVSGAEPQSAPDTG
substance,measurement,value
K12 (from UniProt Q8WVN6),Kd,10 nM and 38 nM
